We go through 2 molecules from paper PMC5018835.

Assay [1] concerns the target Hsp82p:Hsp82p^LL heterodimer (S. cerevisiae), P02829.
The target in assay [2] is Hsp82p:Hsp82p^V391E/LL heterodimer (S. cerevisiae), P02829.

B1: Hch1p (N-terminal 6xHis tag), P53834 1-153 (natural protein)
chain: MVVLNPNNWHWVDKNTLPWSKDYLNGKLTSLSTVSSDGKSKIELTQVSSITGDSNVSQRKGKPICYFDLQLSMNVKVTNLDTNKDDEDDDGILADGKLEIPEFMHDESDIPILSQGFDAFDGLVRSEFVPKVVETLLKYQDDLIKEHSKDIQV
On to B1, for which the inhibition of the ATPase activity of Hsp82p:Hsp82p^LL heterodimers (1 μM + 5 μM) by titrated Hch1p (~16% at 2.5 μM, ~11% at 5 μM, overcome at higher concentrations; Fig. 2C) in assay [1] amounted to 16%.

B2: Aha1p (full length, N-terminal 6xHis tag), Q12449 1-350 (natural protein)
chain: MVVNNPNNWHWVDKNCIGWAKEYFKQKLVGVEAGSVKDKKYAKIKSVSSIEGDCEVNQRKGKVISLFDLKITVLIEGHVDSKDGSALPFEGSINVPEVAFDSEASSYQFDISIFKETSELSEAKPLIRSELLPKLRQIFQQFGKDLLATHGNDIQVPESQVKSNYTRGNQKSSFTEIKDSASKPKKNALPSSTSTSAPVSSTNKVPQNGSGNSTSIYLEPTFNVPSSELYETFLDKQRILAWTRSAQFFNSGPKLETKEKFELFGGNVISELVSCEKDKKLVFHWKLKDWSAPFNSTIEMTFHESQEFHETKLQVKWTGIPVGEEDRVRANFEEYYVRSIKLTFGFGAVL
For B2, the apparent affinity (Kapp) from the fit of ATPase stimulation of Hsp82p:Hsp82p^V391E/LL heterodimers (1 μM + 5 μM) against Aha1p concentration (Fig. 3E) in assay [2] amounted to 0.8 µM.
